The target in the assay is β subunit of DNA polymerase III of Escherichia coli (Escherichia coli, UniProt P0A988 1-366). The experiment in a line: cell-based or functional assay.
Sequence of β subunit of DNA polymerase III of Escherichia coli (P0A988 whole entry): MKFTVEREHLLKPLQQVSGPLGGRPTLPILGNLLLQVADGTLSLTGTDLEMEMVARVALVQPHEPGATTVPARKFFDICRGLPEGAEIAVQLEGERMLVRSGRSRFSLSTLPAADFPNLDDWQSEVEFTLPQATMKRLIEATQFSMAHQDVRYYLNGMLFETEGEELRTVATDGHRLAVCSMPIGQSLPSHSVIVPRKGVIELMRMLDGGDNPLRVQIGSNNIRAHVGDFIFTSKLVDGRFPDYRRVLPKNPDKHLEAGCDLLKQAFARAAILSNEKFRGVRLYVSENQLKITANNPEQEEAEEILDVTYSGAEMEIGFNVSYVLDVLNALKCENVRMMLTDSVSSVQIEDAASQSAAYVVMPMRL

Consider VTLLDPQMERQLVLGL [P16 peptide, the 16 last residues of Pol IV DNA polymerase of E. coli], for which the “β-dependent Pol IV activity (ratio of β-dependent to β-independent polymerase activities)” value is approximately 30 fold decrease.

(Values after patent US20070275898A1 (CENTRE NATIONAL DE LA RECHERCHE SCIENTIFIQUE, published 2007).)
